In US20250339569A1 (3B PHARMACEUTICALS, published 2025):
Starred links: 1 amine or outer side, 2 acyl side, 3 side chain; linkers in the order of their positions; H or OH if unused. Positions of bridges follow the written chain, without caps; N, C: chain ends. Non-standard residues stand in square brackets, D forms with d. Groups on a side chain read outwards from the residue. *: point of attachment. DOTA = O=C(O)CN1CCN(CC(=O)O)CCN(CC(=O)*)CCN(CC(=O)O)CC1; mXylylene = c1cc(C[*:1])cc(C[*:2])c1; tBuAla = CC(C)(C)C[C@H](N)C(=O)O; Aic = NC1(C(=O)O)Cc2ccccc2C1; Pen = CC(C)(S)[C@H](N)C(=O)O; Propanoyl(3-OH) = O=C(CCO)*; 4Amb = NCc1ccc(C(=O)O)cc1; Isovaleryl = CC(C)CC(=O)*; Ac6c = NC1(C(=O)O)CCCCC1; 4Amc = not defined here; APAc = not defined here; Ac5c = NC1(C(=O)O)CCCC1; Thp = NC1(C(=O)O)CCOCC1; Apr = not defined here; AEEA = NCCOCCOCC(=O)O; Nlys = NCCCCNCC(=O)O; Sar = CNCC(=O)O

B1: 3BP-3474 (peptide)
peptide: Ac-VYCE[dP]DWLTWAC[AEEA]K(DOTA)-NH2
modifications: linker 3-12 via mXylylene
SMILES: CC(=O)N[C@H](C(=O)N[C@@H](Cc1ccc(O)cc1)C(=O)N[C@H]1CSCc2cccc(c2)CSC[C@@H](C(=O)NCCOCCOCC(=O)N[C@@H](CCCCNC(=O)CN2CCN(CC(=O)O)CCN(CC(=O)O)CCN(CC(=O)O)CC2)C(N)=O)NC(=O)[C@H](C)NC(=O)[C@H](Cc2c[nH]c3ccccc23)NC(=O)[C@H]([C@@H](C)O)NC(=O)[C@H](CC(C)C)NC(=O)[C@H](Cc2c[nH]c3ccccc23)NC(=O)[C@H](CC(=O)O)NC(=O)[C@H]2CCCN2C(=O)[C@H](CCC(=O)O)NC1=O)C(C)C
notes: also called Ac-Val-Tyr-[Cys(3MeBn)-Glu-pro-Asp-Trp-Leu-Thr-Trp-Ala-Cys]-O2Oc-Lys(DOTA)-NH2
B2: 3BP-3493 (peptide)
peptide: Ac-VYCE[dP]DW[tBuAla]TWA[Pen]-NH2
modifications: linker 3-12 via mXylylene
SMILES: CC(=O)N[C@H](C(=O)N[C@@H](Cc1ccc(O)cc1)C(=O)N[C@H]1CSCc2cccc(c2)CSC(C)(C)[C@@H](C(N)=O)NC(=O)[C@H](C)NC(=O)[C@H](Cc2c[nH]c3ccccc23)NC(=O)[C@H]([C@@H](C)O)NC(=O)[C@H](CC(C)(C)C)NC(=O)[C@H](Cc2c[nH]c3ccccc23)NC(=O)[C@H](CC(=O)O)NC(=O)[C@H]2CCCN2C(=O)[C@H](CCC(=O)O)NC1=O)C(C)C
notes: also called Ac-Val-Tyr-[Cys(3MeBn)-Glu-pro-Asp-Trp-Npg-Thr-Trp-Ala-Pen]-NH2
B3: 3BP-3501 (peptide)
peptide: Ac-VYCE[Sar]DW[tBuAla]TWA[Pen]-NH2
modifications: linker 3-12 via mXylylene
SMILES: CC(=O)N[C@H](C(=O)N[C@@H](Cc1ccc(O)cc1)C(=O)N[C@H]1CSCc2cccc(c2)CSC(C)(C)[C@@H](C(N)=O)NC(=O)[C@H](C)NC(=O)[C@H](Cc2c[nH]c3ccccc23)NC(=O)[C@H]([C@@H](C)O)NC(=O)[C@H](CC(C)(C)C)NC(=O)[C@H](Cc2c[nH]c3ccccc23)NC(=O)[C@H](CC(=O)O)NC(=O)CN(C)C(=O)[C@H](CCC(=O)O)NC1=O)C(C)C
notes: also called Ac-Val-Tyr-[Cys(3MeBn)-Glu-Nmg-Asp-Trp-Npg-Thr-Trp-Ala-Pen]-NH2
B4: 3BP-3587 (peptide)
peptide: {DOTA-APAc}-VYCE[dP]DW[Ac5c]TWSC-NH2
modifications: linker 3-12 via mXylylene; reading uncertain
notes: also called DOTA-APAc-Val-Tyr-[Cys(3MeBn)-Glu-pro-Asp-Trp-Eca-Thr-Trp-Ser-Cys]-NH2
B5: 3BP-3562 (peptide)
peptide: Ac-VYCE[Nlys](DOTA)DWLTWAC-NH2
modifications: linker 3-12 via mXylylene
notes: also called Ac-Val-Tyr-[Cys(3MeBn)-Glu-Nlys(DOTA)-Asp-Trp-Leu-Thr-Trp-Ala-Cys]-NH2
B6: 3BP-3569 (peptide)
peptide: Isovaleryl-YCE[dP]DWLTWSC-NH2
modifications: linker 2-11 via mXylylene
SMILES: CC(C)CC(=O)N[C@@H](Cc1ccc(O)cc1)C(=O)N[C@H]1CSCc2cccc(c2)CSC[C@@H](C(N)=O)NC(=O)[C@H](CO)NC(=O)[C@H](Cc2c[nH]c3ccccc23)NC(=O)[C@H]([C@@H](C)O)NC(=O)[C@H](CC(C)C)NC(=O)[C@H](Cc2c[nH]c3ccccc23)NC(=O)[C@H](CC(=O)O)NC(=O)[C@H]2CCCN2C(=O)[C@H](CCC(=O)O)NC1=O
notes: also called Iva-Tyr-[Cys(3MeBn)-Glu-pro-Asp-Trp-Leu-Thr-Trp-Ser-Cys]-NH2
B7: 3BP-3728 (peptide)
peptide: Isovaleryl-ECE[dP]DWLTWSC-NH2
modifications: linker 2-11 via 3MeBn
notes: also called Iva-Glu-[Cys(3MeBn)-Glu-pro-Asp-Trp-Leu-Thr-Trp-Ser-Cys]-NH2
B8: 3BP-3743 (peptide)
peptide: Isovaleryl-SCE[dP]DWLTWE([Apr-AEEA-DOTA])C-NH2
modifications: linker 2-11 via 3MeBn; reading uncertain
notes: also called Iva-Ser-[Cys(3MeBn)-Glu-pro-Asp-Trp-Leu-Thr-Trp-Glu(NH-Apr-O2Oc-DOTA′)-Cys]-NH2
B9: 3BP-3842 (peptide)
peptide: {Propanoyl(3-OH)}-YCE[dP]DWLTWE([Apr-DOTA])C-NH2
modifications: linker 2-11 via mXylylene; reading uncertain
notes: also called 3OHPr-Tyr-[Cys(3MeBn)-Glu-pro-Asp-Trp-Leu-Thr-Trp-Glu(NH-Apr-DOTA′)-Cys]-NH2
B10: 3BP-3841 (peptide)
peptide: Ac-YCE[dP]DWLTWE([Apr-DOTA])C-NH2
modifications: linker 2-11 via 3MeBn; reading uncertain
notes: also called Ac-Tyr-[Cys(3MeBn)-Glu-pro-Asp-Trp-Leu-Thr-Trp-Glu(NH-Apr-DOTA′)-Cys]-NH2
B11: 3BP-3740 (peptide)
peptide: Isovaleryl-YCE[dP]DWLTWE([Apr-AEEA-DOTA])C-NH2
modifications: linker 2-11 via 3MeBn; reading uncertain
notes: also called Iva-Tyr-[Cys(3MeBn)-Glu-pro-Asp-Trp-Leu-Thr-Trp-Glu(NH-Apr-O2Oc-DOTA′)-Cys]-NH2
B12: 3BP-3742 (peptide)
peptide: Isovaleryl-FCE[dP]DWLTWE([Apr-AEEA-DOTA])C-NH2
modifications: linker 2-11 via 3MeBn; reading uncertain
notes: also called Iva-Phe-[Cys(3MeBn)-Glu-pro-Asp-Trp-Leu-Thr-Trp-Glu(NH-Apr-O2Oc-DOTA′)-Cys]-NH2
B13: 3BP-3727 (peptide)
peptide: Isovaleryl-DCE[dP]DWLTWSC-NH2
modifications: linker 2-11 via 3MeBn
notes: also called Iva-Asp-[Cys(3MeBn)-Glu-pro-Asp-Trp-Leu-Thr-Trp-Ser-Cys]-NH2
B14: 3BP-3492 (peptide)
peptide: Ac-VYCE[dP]DWLTWA[Pen]-NH2
modifications: linker 3-12 via mXylylene
SMILES: CC(=O)N[C@H](C(=O)N[C@@H](Cc1ccc(O)cc1)C(=O)N[C@H]1CSCc2cccc(c2)CSC(C)(C)[C@@H](C(N)=O)NC(=O)[C@H](C)NC(=O)[C@H](Cc2c[nH]c3ccccc23)NC(=O)[C@H]([C@@H](C)O)NC(=O)[C@H](CC(C)C)NC(=O)[C@H](Cc2c[nH]c3ccccc23)NC(=O)[C@H](CC(=O)O)NC(=O)[C@H]2CCCN2C(=O)[C@H](CCC(=O)O)NC1=O)C(C)C
notes: also called Ac-Val-Tyr-[Cys(3MeBn)-Glu-pro-Asp-Trp-Leu-Thr-Trp-Ala-Pen]-NH2
B15: 3BP-3477 (peptide)
peptide: Ac-VYCE[dP]DWLTWAC[4Amb]K(DOTA)-NH2
modifications: linker 3-12 via mXylylene
SMILES: CC(=O)N[C@H](C(=O)N[C@@H](Cc1ccc(O)cc1)C(=O)N[C@H]1CSCc2cccc(c2)CSC[C@@H](C(=O)NCc2ccc(C(=O)N[C@@H](CCCCNC(=O)CN3CCN(CC(=O)O)CCN(CC(=O)O)CCN(CC(=O)O)CC3)C(N)=O)cc2)NC(=O)[C@H](C)NC(=O)[C@H](Cc2c[nH]c3ccccc23)NC(=O)[C@H]([C@@H](C)O)NC(=O)[C@H](CC(C)C)NC(=O)[C@H](Cc2c[nH]c3ccccc23)NC(=O)[C@H](CC(=O)O)NC(=O)[C@H]2CCCN2C(=O)[C@H](CCC(=O)O)NC1=O)C(C)C
notes: also called Ac-Val-Tyr-[Cys(3MeBn)-Glu-pro-Asp-Trp-Leu-Thr-Trp-Ala-Cys]-Pamb-Lys(DOTA)-NH2
B16: 3BP-3584 (peptide)
peptide: {DOTA-APAc}-VYCE[dP]DW[Ac6c]TWSC-NH2
modifications: linker 3-12 via mXylylene; reading uncertain
notes: also called DOTA-APAc-Val-Tyr-[Cys(3MeBn)-Glu-pro-Asp-Trp-Egz-Thr-Trp-Ser-Cys]-NH2
B17: 3BP-3586 (peptide)
peptide: {DOTA-APAc}-VYCE[dP]DW[Aic]TWSC-NH2
modifications: linker 3-12 via mXylylene; reading uncertain
notes: also called DOTA-APAc-Val-Tyr-[Cys(3MeBn)-Glu-pro-Asp-Trp-Aic-Thr-Trp-Ser-Cys]-NH2
B18: 3BP-3873 (peptide)
peptide: Ac-SYCE[dP]DWLTWE([Apr-DOTA])C-NH2
modifications: linker 3-12 via mXylylene; reading uncertain
notes: also called Ac-Ser-Tyr-[Cys(3MeBn)-Glu-pro-Asp-Trp-Leu-Thr-Trp-Glu(NH-Apr-DOTA′)-Cys]-NH2
B19: 3BP-3585 (peptide)
peptide: {DOTA-APAc}-VYCE[dP]DW[Thp]TWSC-NH2
modifications: linker 3-12 via mXylylene; reading uncertain
notes: also called DOTA-APAc-Val-Tyr-[Cys(3MeBn)-Glu-pro-Asp-Trp-Thp-Thr-Trp-Ser-Cys]-NH2
B20: 3BP-3729 (peptide)
peptide: Ac-YCE[dP]DWLTWSC-NH2
modifications: linker 2-11 via 3MeBn
notes: also called Ac-Tyr-[Cys(3MeBn)-Glu-pro-Asp-Trp-Leu-Thr-Trp-Ser-Cys]-NH2
B21: 3BP-3491 (peptide)
peptide: Ac-VYCE[dP]DW[tBuAla]TWSC-NH2
modifications: linker 3-12 via mXylylene
SMILES: CC(=O)N[C@H](C(=O)N[C@@H](Cc1ccc(O)cc1)C(=O)N[C@H]1CSCc2cccc(c2)CSC[C@@H](C(N)=O)NC(=O)[C@H](CO)NC(=O)[C@H](Cc2c[nH]c3ccccc23)NC(=O)[C@H]([C@@H](C)O)NC(=O)[C@H](CC(C)(C)C)NC(=O)[C@H](Cc2c[nH]c3ccccc23)NC(=O)[C@H](CC(=O)O)NC(=O)[C@H]2CCCN2C(=O)[C@H](CCC(=O)O)NC1=O)C(C)C
notes: also called Ac-Val-Tyr-[Cys(3MeBn)-Glu-pro-Asp-Trp-Npg-Thr-Trp-Ser-Cys]-NH2
B22: 3BP-3431 (peptide)
peptide: {DOTA-4Amc}-VYCE[dP]DW[tBuAla]TWAC-NH2
modifications: linker 3-12 via mXylylene; reading uncertain
notes: also called DOTA-4Amc-Val-Tyr-[Cys(3MeBn)-Glu-pro-Asp-Trp-Npg-Thr-Trp-Ala-Cys]-NH2
B23: 3BP-3503 (peptide)
peptide: Ac-VYCE[dP]DW[Ac6c]TWAC-NH2
modifications: linker 3-12 via mXylylene
SMILES: CC(=O)N[C@H](C(=O)N[C@@H](Cc1ccc(O)cc1)C(=O)N[C@H]1CSCc2cccc(c2)CSC[C@@H](C(N)=O)NC(=O)[C@H](C)NC(=O)[C@H](Cc2c[nH]c3ccccc23)NC(=O)[C@H]([C@@H](C)O)NC(=O)C2(CCCCC2)NC(=O)[C@H](Cc2c[nH]c3ccccc23)NC(=O)[C@H](CC(=O)O)NC(=O)[C@H]2CCCN2C(=O)[C@H](CCC(=O)O)NC1=O)C(C)C
notes: also called Ac-Val-Tyr-[Cys(3MeBn)-Glu-pro-Asp-Trp-Egz-Thr-Trp-Ala-Cys]-NH2
B24: 3BP-3490 (peptide)
peptide: Ac-VYCE[dP]DW[tBuAla]TWAC-NH2
modifications: linker 3-12 via mXylylene
SMILES: CC(=O)N[C@H](C(=O)N[C@@H](Cc1ccc(O)cc1)C(=O)N[C@H]1CSCc2cccc(c2)CSC[C@@H](C(N)=O)NC(=O)[C@H](C)NC(=O)[C@H](Cc2c[nH]c3ccccc23)NC(=O)[C@H]([C@@H](C)O)NC(=O)[C@H](CC(C)(C)C)NC(=O)[C@H](Cc2c[nH]c3ccccc23)NC(=O)[C@H](CC(=O)O)NC(=O)[C@H]2CCCN2C(=O)[C@H](CCC(=O)O)NC1=O)C(C)C
notes: also called Ac-Val-Tyr-[Cys(3MeBn)-Glu-pro-Asp-Trp-Npg-Thr-Trp-Ala-Cys]-NH2

molecular target: human carbonic anhydrase 9 (CAIX) (human, UniProt Q16790 38-459); experiment: FACS competition on HT-29 cells against tracer 3BP-2776; pIC50 category A = pIC50 >8.0
Method: CAIX-expressing human HT-29 colorectal cancer cells (DSMZ, RRID: CVCL_0320) were cultured in McCoys's 5A modified medium (Biochrom, #F1015) including 10% fetal calf serum (FCS), 2 mM L-glutamine, 100 U/ml penicillin and 100 μg/mL streptomycin. Cells were detached with Accutase (Biolegend, #423201) and washed in FACS buffer (PBS including 1% FCS). Cells were diluted in FACS buffer to a final concentration of 500.000 cells per ml. 200 μL of the cell suspension were transferred to a u-shaped non-binding 96-well plate (Greiner) and cells were washed in ice-cold FACS buffer.
When biotinylated compounds were used an additional incubation step with 1 μg/mL APC-Streptavidin (Miltenyi; #130-106-791) in 50 μL FACS buffer for 30 minutes on ice was performed.
Cells were washed twice with ice-cold FACS buffer and analyzed in an Attune NxT flow cytometer (Thermo Fisher). Median fluorescence intensities (MFI) of the APC/Cy5-channel were calculated by Attune NxT software.

pIC50, > 8 pic50:
B1
B2
B3
B4
B5
B6
B7
B8
B9
B10
B11
B12
B13
B14
B15
B16
B17
B18
B19
B20
B21
B22
B23
B24
